The data set has as its target T1, ETS1 x2 (Homo sapiens, UniProt P14921).
T1 sequence: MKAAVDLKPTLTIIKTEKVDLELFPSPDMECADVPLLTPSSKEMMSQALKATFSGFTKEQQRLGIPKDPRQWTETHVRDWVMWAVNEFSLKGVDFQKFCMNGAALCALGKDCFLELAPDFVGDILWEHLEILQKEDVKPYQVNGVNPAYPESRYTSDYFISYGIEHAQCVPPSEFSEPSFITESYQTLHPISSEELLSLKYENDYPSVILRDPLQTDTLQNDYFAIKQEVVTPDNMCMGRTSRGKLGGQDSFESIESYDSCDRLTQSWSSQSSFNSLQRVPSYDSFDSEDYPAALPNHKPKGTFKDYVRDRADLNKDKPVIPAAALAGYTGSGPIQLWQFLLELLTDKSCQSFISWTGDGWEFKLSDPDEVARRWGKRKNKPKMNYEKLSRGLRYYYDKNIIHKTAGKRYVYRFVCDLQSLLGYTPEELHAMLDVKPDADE
Description: gcPBM; 10 nM ETS1. To be noted: tags: N-terminal GST (pDEST15), kept (PMC6008103); chain copies: 2; label: surface-attached array probe.

B1: Table S4 A row 2116 (dsDNA)
DNA 1: CCCAGCGGGCGAACTTCCTTTCCGCGCAACTCGCCC
DNA 2: GGGCGAGTTGCGCGGAAAGGAAGTTCGCCCGCTGGG
Take B1: the binding signal is 2660 PBM fluorescence, median of replicate spots.

B2: Table S4 A row 2434 (dsDNA)
DNA 1: AGCAACAACGTCACTTCCCTTCCGGACCACAAGGGG
DNA 2: CCCCTTGTGGTCCGGAAGGGAAGTGACGTTGTTGCT
With B2, the binding signal was 3480 PBM fluorescence, median of replicate spots.

B3: Table S4 A row 136 (dsDNA)
DNA 1: TCTTTTGATTGGGCTTCCTTCCTGTGTTTTCTCAGA
DNA 2: TCTGAGAAAACACAGGAAGGAAGCCCAATCAAAAGA
With B3, the binding signal was 2710 PBM fluorescence, median of replicate spots.

B4: Table S4 A row 2126 (dsDNA)
DNA 1: ACGCGAAAGCCCGGATAGACTTCCGCGCAGGGGCGG
DNA 2: CCGCCCCTGCGCGGAAGTCTATCCGGGCTTTCGCGT
Consider B4, for which the binding signal was 2080 PBM fluorescence, median of replicate spots.

B5: Table S4 A row 700 (dsDNA)
DNA 1: TGGGTGACACTCCTTCCGCCTTCCGTGACCCCCATC
DNA 2: GATGGGGGTCACGGAAGGCGGAAGGAGTGTCACCCA
On to B5, for which the binding signal was 2820 PBM fluorescence, median of replicate spots.

B6: Table S4 A row 110 (dsDNA)
DNA 1: TTGAGGGCTGGGCGGAAACGGAAAAGGCTAAGGGCC
DNA 2: GGCCCTTAGCCTTTTCCGTTTCCGCCCAGCCCTCAA
Regarding B6, the binding signal is 2150 PBM fluorescence, median of replicate spots.

B7: Table S4 A row 2151 (dsDNA)
DNA 1: AGGGCTCAGAGGCGGAAGCGGAAGCACATTCTGTCA
DNA 2: TGACAGAATGTGCTTCCGCTTCCGCCTCTGAGCCCT
As to B7, the binding signal is 3300 PBM fluorescence, median of replicate spots.

B8: Table S4 A row 548 (dsDNA)
DNA 1: GCGCACCGAAACGGAAGAACTTCCTTGATTAGCATA
DNA 2: TATGCTAATCAAGGAAGTTCTTCCGTTTCGGTGCGC
For the molecule B8, the binding signal was 2740 PBM fluorescence, median of replicate spots.

B9: Table S4 A row 382 (dsDNA)
DNA 1: AGGAGGGAGGGAGCTTCCTTCCTGTTCTCTGAAGGC
DNA 2: GCCTTCAGAGAACAGGAAGGAAGCTCCCTCCCTCCT
Take B9: the binding signal is 3590 PBM fluorescence, median of replicate spots.

B10: Table S4 A row 1324 (dsDNA)
DNA 1: TTGAATGGACCTCATCCTGCTTCCTGCTCTTTGCAG
DNA 2: CTGCAAAGAGCAGGAAGCAGGATGAGGTCCATTCAA
For the molecule B10, the binding signal was 3130 PBM fluorescence, median of replicate spots.

B11: Table S4 A row 2556 (dsDNA)
DNA 1: CGCGCCGGACCGGAAAGCCGGGGAAGTGGCCGAGGA
DNA 2: TCCTCGGCCACTTCCCCGGCTTTCCGGTCCGGCGCG
As to B11, the binding signal is 3050 PBM fluorescence, median of replicate spots.

B12: Table S4 A row 2241 (dsDNA)
DNA 1: GCGGCCTCCAAACATCCTCCGGAAGCTGCCACCTAC
DNA 2: GTAGGTGGCAGCTTCCGGAGGATGTTTGGAGGCCGC
Consider B12, for which the binding signal was 2030 PBM fluorescence, median of replicate spots.

B13: Table S4 A row 1821 (dsDNA)
DNA 1: TAATCTGCAACTTCCCTGTTCTTCCTGTTAGATGTG
DNA 2: CACATCTAACAGGAAGAACAGGGAAGTTGCAGATTA
For B13, the binding signal is 2270 PBM fluorescence, median of replicate spots.

B14: Table S4 A row 1015 (dsDNA)
DNA 1: AGAAGCCACCACAGGAAACGGAAGAAGCCACCTCTG
DNA 2: CAGAGGTGGCTTCTTCCGTTTCCTGTGGTGGCTTCT
Turning to B14, the binding signal was 3380 PBM fluorescence, median of replicate spots.

B15: Table S4 A row 2174 (dsDNA)
DNA 1: CAGCACGGGCCGCTTCCTTATCCGGTAAAGTGCGGG
DNA 2: CCCGCACTTTACCGGATAAGGAAGCGGCCCGTGCTG
As for B15, the binding signal was 2460 PBM fluorescence, median of replicate spots.

B16: Table S4 A row 1239 (dsDNA)
DNA 1: GGGAGGCCCTGCAGGAAGCAGGATGTTGACCCGGAG
DNA 2: CTCCGGGTCAACATCCTGCTTCCTGCAGGGCCTCCC
In the case of B16, the binding signal is 2610 PBM fluorescence, median of replicate spots.

B17: Table S4 A row 502 (dsDNA)
DNA 1: CAGAGCAGCAGGAAACCATTATTTCCTCCTAGGTCT
DNA 2: AGACCTAGGAGGAAATAATGGTTTCCTGCTGCTCTG
B17: the binding signal is 2360 PBM fluorescence, median of replicate spots.

Values taken from publication PMC10681739, “High-throughput data and modeling reveal insights into the mechanisms of cooperative DNA-binding by transcription factor proteins”.
